Like-named read-outs stand apart in the source and are kept apart here.
Columns and labels:
[1] = Thermally driven MC to SP transition, decrease of MC absorption in the dark; assay type: physicochemical
Method: FIG. 7. (A), Time dependent absorption spectra of the lowest energy transition of the MC state of compound 12 dissolved in ethanol at a concentration of 20 μM at 20° in the dark—the spectra, from top to bottom, were recorded at the following times: a) 0; b), 60 s, c), 120 s; d), 180 s; e), 240 s; f), 360 s; g), 420 s; h), 480 s. The lowermost curve is the absorption spectrum of the non-irradiated SP state. (B), The rate for the thermally driven MC to SP transition was determined by analyzing the log of the maximum absorption value for each spectrum shown in FIG. 7A as a function of time. The reaction rate of […] was calculated using a least squares fitting procedure. (C), Absorption spectra of the MC-G-actin conjugate (compound 9) as a function of time in the dark. Spectra are as follows: a), before irradiation; b), after 30 second irradiation with 365 nm light; c), after 5 minutes in the dark at 20°; d), after 22 minutes in the dark at 20°; e) after irradiation with 546 nm light for 30 seconds
Thermally-driven transitions between MC and SP. The rate for the thermal equilibration of MC to SP in ethanol was measured using the decrease in the maximum MC absorption value as a function of time in the dark (FIGS. 7A,B). […] This rate, however, is too fast for many of the envisioned applications of optical switches in biology. […]

[2] = Absorption maximum of the MC state; assay type: physicochemical
Source text: The family of Ca^2+-optical switch described in this invention has built-in design features that can be used to tune the maximum of the action spectrum for the MC-SP transition. The nitro group generates a weakly fluorescent MC state, which can be used to quantify the kinetics of Ca^2+-perturbations and to image the distribution of the MC state within living cells.
The absorption properties of the MC state of the Ca^2+ switch can be tuned using different 1-nitroso-2-naphthol. […] We will investigate the photophysics of optimized Ca^2+ switches based on spironaphthoxazine. We anticipate, based on our observations of the thermally-induced MC to SP transition that the rate of photochemistry for the spironaphthoxazine will be faster that the 11 μs reported for the spirobenzopyran group (Gorner, 2001).

[3] = biological target: barbed-end of the actin filament; settings: Ca^2+-dependent; Southwick & DiNubile, 1986; read-out: kd for binding to the barbed-end of the actin filament; cited from earlier work
G-actin [4] = biological target: T1, G-actin (Oryctolagus cuniculus, UniProt P68135); experiment: CapG binding to Prodan-G-actin (fluorescence); parameters: Rabbit muscle G-actin is purified according to Marriott (1994); from tissue; host or cells: rabbit muscle; species or system Rabbit
Method: (§1) FIG. 20: Caging of CapG (A): Absorption spectra of […] samples of CapG (2), caged CapG (curve 1).
Preparation and characterization of caged CapG: Caged CapG was prepared using a modification of our published method for caging actin and profilin (Marriott, 1994; Marriott et al, 2003). In brief a purified solution of CapG (1 mg/ml) was dialyzed against 20 mM borate buffer, pH 8.5 overnight. The protein was centrifuged and the OD280 nm measured to determine the protein concentration (FIG. 8A). A 0.1 M acetone solution of NVOC-Cl was freshly prepared and added to the CapG with vigorous vortexing to a final concentration of 1 mM. This was usually realized by 2-3 additions over a 5-minute period. After 30 minutes at room temperature in the dark, the protein was centrifuged and dialyzed against 2×500 ml of G-buffer overnight. The absorption spectrum of the protein was recorded using the dialysis buffer as a reference and the amount of NVOC was determined by measuring the A350nm (E350nm=5,000 M^−1cm^−1). The concentration of protein was determined using the Bio-Rad Bradford assay. The introduction of 3-4 NVOC groups was sufficient to inhibit the formation of G-actin-CapG using two independent assays based on sensitivity of Prodan-actin to CapG binding. […]

G-actin [5] = biological target: T1, G-actin; experiment: Prodan-actin polymerization kinetics; assay type: biochemical, Rabbit; parameters: Rabbit muscle G-actin is purified according to Marriott (1994); from tissue; host or cells: rabbit muscle
Method: as §1
Preparation and characterization of caged CapG: Caged CapG was prepared using a modification of our published method for caging actin and profilin (Marriott, 1994; Marriott et al, 2003). In brief a purified solution of CapG (1 mg/ml) was dialyzed against 20 mM borate buffer, pH 8.5 overnight. The protein was centrifuged and the OD280 nm measured to determine the protein concentration (FIG. 8A). A 0.1 M acetone solution of NVOC-Cl was freshly prepared and added to the CapG with vigorous vortexing to a final concentration of 1 mM. This was usually realized by 2-3 additions over a 5-minute period. After 30 minutes at room temperature in the dark, the protein was centrifuged and dialyzed against 2×500 ml of G-buffer overnight. The absorption spectrum of the protein was recorded using the dialysis buffer as a reference and the amount of NVOC was determined by measuring the A350nm (E350nm=5,000 M^−1cm^−1). The concentration of protein was determined using the Bio-Rad Bradford assay. The introduction of 3-4 NVOC groups was sufficient to inhibit the formation of G-actin-CapG using two independent assays based on sensitivity of Prodan-actin to CapG binding. In FIG. 20B, CapG binding to Prodan-G-actin is seen to shift the emission spectrum, from 496 nm to 465 nm, and is accompanied by a 1.5 fold (FIG. 20B, curve 1)—this signal can be used to analyze the effects of CapG on actin polymerization kinetics as shown in FIG. 20C.

| Molecule | thermal reversion to the SP state [1] | MC state absorption maximum [2] | Kd [3] | Kd (G-actin [4]; data not shown, read-out: kd of complex with G-actin) | effect on actin polymerization (G-actin [5]) | binding to G-actin (G-actin [4]; Prodan-G-actin) | effect on actin polymerization (G-actin [5]; listed as Caged CapG) |
| --- | --- | --- | --- | --- | --- | --- | --- |
| CN1c2cc(CBr)ccc2C(C)(C)C12C=Nc1c(ccc3ccccc13)O2 (centres unmarked) [Compound 17, 6′-(Bromomethyl)spironaphthoxazin] | within seconds | about 620 nm |  |  |  |  |  |
| CapG: 40 kD, Ca^2+ regulated actin filament barbed-end capping protein, His-tagged, cloned from mouse cDNA library (protein, UniProt P24452 1-352, looked up, His tag, 40 kD, Ca^2+ regulated actin filament barbed-end capping protein, His-tagged, cloned from mouse cDNA library) Macrophage-capping protein: MYTPIPQSGSPFPASVQDPGLHIWRVEKLKPVPIARESHGIFFSGDSYLVLHNGPEEASHLHLWIGQQSSRDEQGACAVLAVHLNTLLGERPVQHREVQGNESDLFMSYFPRGLKYYREGGVESAFHKTTSGARGAAIRKLYQVKGKKNIRATERPLSWDSFNTGDCFILDLGQNIFAWCGGKSNILERNKARDLALAIRDSERQGKAQVEIITDGEEPAEMIQVLGPKPALKEGNPEEDITADQTRPNAQAAALYKVSDATGQMNLTKVADSSPFASELLIPDDCFVLDNGLCAQIYIWKGRKANEKERQAALQVADGFISRMRYSPNTQVEILPQGRESPIFKQFFKNWK |  |  | 1000 nM | 100 nM | inhibits the polymerization of G-actin |  |  |
| caged CapG: CapG labeled with 3-4 NVOC groups using NVOC-Cl (protein, UniProt P24452 1-352, looked up, caged with 3-4 NVOC groups, CapG labeled with 3-4 NVOC groups using NVOC-Cl) Macrophage-capping protein: MYTPIPQSGSPFPASVQDPGLHIWRVEKLKPVPIARESHGIFFSGDSYLVLHNGPEEASHLHLWIGQQSSRDEQGACAVLAVHLNTLLGERPVQHREVQGNESDLFMSYFPRGLKYYREGGVESAFHKTTSGARGAAIRKLYQVKGKKNIRATERPLSWDSFNTGDCFILDLGQNIFAWCGGKSNILERNKARDLALAIRDSERQGKAQVEIITDGEEPAEMIQVLGPKPALKEGNPEEDITADQTRPNAQAAALYKVSDATGQMNLTKVADSSPFASELLIPDDCFVLDNGLCAQIYIWKGRKANEKERQAALQVADGFISRMRYSPNTQVEILPQGRESPIFKQFFKNWK |  |  |  |  | limited effect on the rate of actin polymerization | binds poorly to G-actin | almost normal polymerization kinetics |

From patent publication US20090280060A1, “PHOTOCHROMIC PROBES” (priority 2004, published 2009)
